B1: Connector enhancer of kinase suppressor of ras 2 (Homo sapiens), Q8WXI2 (parent)
chain: MALIMEPVSKWSPSQVVDWMKGLDDCLQQYIKNFEREKISGDQLLRITHQELEDLGVSRIGHQELILEAVDLLCALNYGLETENLKTLSHKLNASAKNLQNFITGRRRSGHYDGRTSRKLPNDFLTSVVDLIGAAKSLLAWLDRSPFAAVTDYSVTRNNVIQLCLELTTIVQQDCTVYETENKILHVCKTLSGVCDHIISLSSDPLVSQSAHLEVIQLANIKPSEGLGMYIKSTYDGLHVITGTTENSPADRCKKIHAGDEVIQVNHQTVVGWQLKNLVNALREDPSGVILTLKKRPQSMLTSAPALLKNMRWKPLALQPLIPRSPTSSVATPSSTISTPTKRDSSALQDLYIPPPPAEPYIPRDEKGNLPCEDLRGHMVGKPVHKGSESPNSFLDQEYRKRFNIVEEDTVLYCYEYEKGRSSSQGRRESTPTYGKLRPISMPVEYNWVGDYEDPNKMKRDSRRENSLLRYMSNEKIAQEEYMFQRNSKKDTGKKSKKKGDKSNSPTHYSLLPSLQMDALRQDIMGTPVPETTLYHTFQQSSLQHKSKKKNKGPIAGKSKRRISCKDLGRGDCEGWLWKKKDAKSYFSQKWKKYWFVLKDASLYWYINEEDEKAEGFISLPEFKIDRASECRKKYAFKACHPKIKSFYFAAEHLDDMNRWLNRINMLTAGYAERERIKQEQDYWSESDKEEADTPSTPKQDSPPPPYDTYPRPPSMSCASPYVEAKHSRLSSTETSQSQSSHEEFRQEVTGSSAVSPIRKTASQRRSWQDLIETPLTSSGLHYLQTLPLEDSVFSDSAAISPEHRRQSTLPTQKCHLQDHYGPYPLAESERMQVLNGNGGKPRSFTLPRDSGFNHCCLNAPVSACDPQDDVQPPEVEEEEEEEEEEGEAAGENIGEKSESREEKLGDSLQDLYRALEQASLSPLGEHRISTKMEYKLSFIKRCNDPVMNEKLHRLRILKSTLKAREGEVAIIDKVLDNPDLTSKEFQQWKQMYLDLFLDICQNTTSNDPLSISSEVDVITSSLAHTHSYIETHV
partner: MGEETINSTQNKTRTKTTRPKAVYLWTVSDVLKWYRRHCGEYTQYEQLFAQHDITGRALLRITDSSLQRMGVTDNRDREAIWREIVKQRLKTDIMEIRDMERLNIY
B2: Protein aveugle (Drosophila melanogaster (Fruit fly)), Q8ML92 (parent)
chain: B1 partner

Variants of: B1
Conditions: with ave_drome ave, Q8ML92

effect of a mutation on the interaction	Variant
decreasing interaction	D71R
disrupting interaction	E68R;D71R
decreasing interaction	I60A

Variants of: B2
Conditions: with cnkr2_human CNKSR2, Q8WXI2

effect of a mutation on the interaction	Variant
decreasing interaction	R57A;R61A
disrupting interaction	R57E;R61E
decreasing interaction	R61E
